Data reported in patent US20190367586A1.

Target: RSV strain 18537 pre-fusion F (Ds-Cav1) (human respiratory syncytial virus subgroup B strain 18537) (UniProt P13843)
Experiment: ELISA, F protein coated

RSV strain 18537 pre-fusion F (Ds-Cav1) (human respiratory syncytial virus subgroup B strain 18537), sequence (P13843 26-513): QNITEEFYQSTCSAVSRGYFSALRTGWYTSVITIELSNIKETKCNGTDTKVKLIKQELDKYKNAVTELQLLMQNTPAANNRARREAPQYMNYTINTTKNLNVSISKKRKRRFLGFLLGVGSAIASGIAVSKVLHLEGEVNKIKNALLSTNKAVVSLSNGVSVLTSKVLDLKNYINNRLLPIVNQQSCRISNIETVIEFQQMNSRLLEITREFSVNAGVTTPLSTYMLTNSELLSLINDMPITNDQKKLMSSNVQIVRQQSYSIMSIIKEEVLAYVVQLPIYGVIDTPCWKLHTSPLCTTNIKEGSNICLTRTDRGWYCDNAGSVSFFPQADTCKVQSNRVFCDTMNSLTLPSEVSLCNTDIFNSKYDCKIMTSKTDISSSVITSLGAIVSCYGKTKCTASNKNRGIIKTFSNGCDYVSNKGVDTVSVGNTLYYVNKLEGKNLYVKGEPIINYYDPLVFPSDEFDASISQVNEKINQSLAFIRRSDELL

Row | Substance | EC50
1 | motavizumab (antibody) | 0.022 µg/mL
2 | palivizumab (antibody) | 0.046 µg/mL
